From US20220289816A1, “IMMUNOTHERAPY WITH B*07 RESTRICTED PEPTIDES AND COMBINATION OF PEPTIDES AGAINST CANCERS AND RELATED METHODS” (Immatics Biotechnologies GmbH, priority 2018, published 2022)

molecular target: HLA-B*07 (Homo sapiens, UniProt P01889); experiment: MHC binding assay (UV-ligand exchange, ELISA of stabilized MHC complexes); conditions: peptide exchange yield on HLA-B*07, UV-ligand exchange
Procedure, shortened: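 Peptide–MHC complexes were made by UV-ligand exchange, in which a UV-cleavable peptide is replaced by the test peptide. Exchange yield was measured by ELISA of stabilized complexes on streptavidin-coated plates, using HRP anti-β2m detection (1 h, 37 °C), TMB substrate and absorbance at 450 nm.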

| Substance | Peptide exchange |
| --- | --- |
| 131 (MPFRNIRSIL; listed as Homo sapiens) [compound 131] | +++ (>50 = +++) |
| 172 (SAQSLHPVL; listed as Homo sapiens) [compound 172] | +++ (>50 = +++) |
| 220 (RPAPGPAPFV; listed as Homo sapiens) [compound 220] | +++ (>50 = +++) |
| 169 (RPFSVSSISQL; listed as Homo sapiens) [compound 169] | ++++ (>75% = ++++) |
| 67 (VPVSRPVL; listed as Homo sapiens) [compound 67] | ++++ (>75% = ++++) |
| 259 (VPMPGVQAV; listed as Homo sapiens) [compound 259] | ++++ (>75% = ++++) |
| 34 (APMAPGRSP; listed as Homo sapiens) [compound 34] | +++ (>50 = +++) |
| 110 (YPSSPASAV; listed as Homo sapiens) [compound 110] | ++++ (>75% = ++++) |
| 204 (FPYSGDKILV; listed as Homo sapiens) [compound 204] | +++ (>50 = +++) |
| 314 (IALMKLAGPL; listed as Homo sapiens) [compound 314] | ++ (>20% = ++) |
| 466 (SPMEAILVSRL; listed as Homo sapiens) [compound 466] | ++++ (>75% = ++++) |
| 158 (SVPVATVEL; listed as Homo sapiens) [compound 158] | ++ (>20% = ++) |
| 448 (TVYGEPRKL; listed as Homo sapiens) [compound 448] | ++ (>20% = ++) |
| 249 (SPRSGVLL; listed as Homo sapiens) [compound 249] | +++ (>50 = +++) |
| 301 (FPAFLEAM; listed as Homo sapiens) [compound 301] | +++ (>50 = +++) |
| 139 (LVILQHQAM; listed as Homo sapiens) [compound 139] | +++ (>50 = +++) |
| 80 (SALPTTISF; listed as Homo sapiens) [compound 80] | +++ (>50 = +++) |
| 268 (EPLSVTASY; listed as Homo sapiens) [compound 268] | ++ (>20% = ++) |
| 375 (LPRGVLEGL; listed as Homo sapiens) [compound 375] | ++++ (>75% = ++++) |
| 154 (RPPPSRRAVL; listed as Homo sapiens) [compound 154] | +++ (>50 = +++) |

| Substance | Peptide exchange |
| --- | --- |
| 377 (SPFSKRIKL; listed as Homo sapiens) [compound 377] | +++ (>50 = +++) |
| 54 (VPSCGRSVEGL; listed as Homo sapiens) [compound 54] | +++ (>50 = +++) |
| 380 (SPYPGSAAF; listed as Homo sapiens) [compound 380] | ++++ (>75% = ++++) |
| 201 (LPIARVLTV; listed as Homo sapiens) [compound 201] | ++++ (>75% = ++++) |
| 308 (RPDVVRTLL; listed as Homo sapiens) [compound 308] | ++++ (>75% = ++++) |
| 229 (FPNAGPRHLL; listed as Homo sapiens) [compound 229] | +++ (>50 = +++) |
| 477 (NPVPVITWYKDNRL; listed as Homo sapiens) [compound 477] | ++++ (>75% = ++++) |
| 184 (KIIASGNHL; listed as Homo sapiens) [compound 184] | ++ (>20% = ++) |
| 277 (MPPLLIVAF; listed as Homo sapiens) [compound 277] | ++ (>20% = ++) |
| 378 (SPRQPRLDF; listed as Homo sapiens) [compound 378] | ++++ (>75% = ++++) |
| 317 (MPYNSAHHCVV; listed as Homo sapiens) [compound 317] | ++++ (>75% = ++++) |
| 453 (APALPGQVTI; listed as Homo sapiens) [compound 453] | ++++ (>75% = ++++) |
| 269 (FTVSSSSAM; listed as Homo sapiens) [compound 269] | ++ (>20% = ++) |
| 150 (APLHGGGSL; listed as Homo sapiens) [compound 150] | +++ (>50 = +++) |
| 181 (LPVSPARAL; listed as Homo sapiens) [compound 181] | +++ (>50 = +++) |
| 47 (RPRQTGALM; listed as Homo sapiens) [compound 47] | ++++ (>75% = ++++) |
| 452 (QPVKKNTL; listed as Homo sapiens) [compound 452] | ++++ (>75% = ++++) |
| 327 (GPRTTQSSVL; listed as Homo sapiens) [compound 327] | ++++ (>75% = ++++) |
| 112 (YPSPLNKHSF; listed as Homo sapiens) [compound 112] | +++ (>50 = +++) |
| 370 (AAHEFGHVL; listed as Homo sapiens) [compound 370] | ++ (>20% = ++) |

| Substance | Peptide exchange |
| --- | --- |
| 292 (LPMTHRLQL; listed as Homo sapiens) [compound 292] | +++ (>50 = +++) |
| 240 (RVMLPKAAL; listed as Homo sapiens) [compound 240] | +++ (>50 = +++) |
| 41 (MPAGGGPRSL; listed as Homo sapiens) [compound 41] | ++++ (>75% = ++++) |
| 323 (TPHGITDIL; listed as Homo sapiens) [compound 323] | ++++ (>75% = ++++) |
| 487 (IPWFIKTAF; listed as Homo sapiens) [compound 487] | ++++ (>75% = ++++) |
| 303 (RPPPPCIAL; listed as Homo sapiens) [compound 303] | ++++ (>75% = ++++) |
| 194 (HPNKIKASL; listed as Homo sapiens) [compound 194] | +++ (>50 = +++) |
| 144 (RPVQGIPTY; listed as Homo sapiens) [compound 144] | +++ (>50 = +++) |
| 363 (KPRTPFTTA; listed as Homo sapiens) [compound 363] | ++++ (>75% = ++++) |
| 246 (RPILKEQSSSSF; listed as Homo sapiens) [compound 246] | ++++ (>75% = ++++) |
| 104 (RPLPNSVIHV; listed as Homo sapiens) [compound 104] | +++ (>50 = +++) |
| 46 (QPISGNPVTL; listed as Homo sapiens) [compound 46] | +++ (>50 = +++) |
| 206 (TPRIGPKVSL; listed as Homo sapiens) [compound 206] | +++ (>50 = +++) |
| 300 (HPYSDLADVF; listed as Homo sapiens) [compound 300] | +++ (>50 = +++) |
| 309 (FAFYGGKSL; listed as Homo sapiens) [compound 309] | +++ (>50 = +++) |
| 95 (RTKEEINEL; listed as Homo sapiens) [compound 95] | ++ (>20% = ++) |
| 278 (LIAARGSLVL; listed as Homo sapiens) [compound 278] | +++ (>50 = +++) |
| 321 (QPQQPGFFL; listed as Homo sapiens) [compound 321] | +++ (>50 = +++) |
| 344 (VPYPSPTCV; listed as Homo sapiens) [compound 344] | ++++ (>75% = ++++) |
